Residue numbers refer to the chain shown, from its start.
B1: P1F1 antibody (antibody, V domains shown)
VH: QVQLVESGPGLVKPSGTLSLTCAVSGGSISSSNWWSWVRQPPGKGLEWIGEIYHSGSTNYNPSLKSRVTISVDTSKNQFSLKLSSVTAADTAVYYCARMGANSGGYLYGMDVWGQGTTVTVSS
VL: QTVVTQEPSFSVSPGGTVTLTCGLSSGSVSTSYYPSWYQQTPGQAPRTLIYSTNTRSSGVPDRFSGSILGNKAALTITGAQADDESDYYCVLYMGSGIWVFGGGTKLTVLG
B2: P1E4 antibody (antibody, V domains shown)
VH: QVQLQQWGAGLLKPSETLSLTCAVYGGSFSGYYWSWIRQPPGKGLEWIGEINHSGSTNYNPSLKSRVTISVDTSKNQFSLKLSSVTTADTAVYYCARMGINSGGYLYGMDVWGQGTTVTVSS
VL: B1 VL with T41I, S52T, T55I, S65G, D83E, V91M
B3: P1A3 antibody (antibody, V domains shown)
VH: EVQLVQSGTEVKKPGASVRVSCKSSGYTFTSYYIHWVRQAPGQGLEWMAIINPGNGDTNYAQRFQGRVTMTRDTSTSTVYMELRSLRSDDTAVYFCAREIASYSGSYYDYWGQGTLVTVSS
VL: B1 VL with T2A, F10L, S32G, Y33H, P35A, I50F, S52N, L69V, M94V, S96D
B4: PFF5 Fab (Fab, V domains shown)
VH: QVQLQESGPGLVKPSETLSLTCTVSGGSISSSSYYWGWIRQPPGKGLEWIGSIYYSGSTYYNPSLKSRVTISVDTSKNQFSLRLSSVSAADTAVYYCARYAPDSSGYLVAFDIWGQGTMVTVSS
VL: B1 VL with T2A, T5I, S32T, S96N, W99S
B5: P1C5 antibody (antibody, V domains shown)
VH: B4 VH with R83K, S88T
VL: B1 VL with S32G, T55S, W99S
B6: PFG3 Fab (Fab, V domains shown)
VH: EVQLVQSGAEVKKPGTSVTVSCRASGFTFSDYYIHWVRQAPGQGLEWMGWVSAYNGDTNYAQKFQGRVTVTTDTSTSTAYMELRSLRSDDTAVYFCAREIASYSGSYYDYWGQGTLVTVSS
VL: B1 VL with T2A, T5L, S25T, S28A, T31S, S52N, N54D, T55I, S57F, W99S
notes: Printed entries run through CL and CH1 (Fab chains); Label G3 tied to PFG3 by inference
B7: PFE1 Fab (Fab, V domains shown)
VH: EVQLVQSGGGVVQPGRSLRLSCAASGFTFSSYAMHWVRQAPGKGLEWVAVISYDGSNKYYADSVKGRFTISRDNSKNTLYLQMNSLRAEDTAVYYCARSRGYYGMDVWGQGTTVTVSS
VL: DVVMTQSPLSLPVTLGQPASISCTSSQSLVYSDGNTYLNWFQQRPGQSPRRLIYKVSKRDSGVPDRFSGSGSGTDFTLKISRVEAEDVAIYYCMQGTHWPLTFGGGTKVEIKR
notes: Printed entries run through CL and CH1 (Fab chains); Label E1 tied to PFE1 by inference
B8: PFB4 Fab (Fab, V domains shown)
VH: B7 VH with A33G, N74D, R98K, S99D
VL: QAVVIQEPSLTVSPGGTVTLTCGSTTGAVTSGHYPSWFQQKPGQAPRALIYSTSNKHSWTPARFSGSLLGGKAALTLSGVQPEDEAEYYCLLYYGGARVFGGGTKLTVLG
notes: Printed entries run through CL and CH1 (Fab chains); Label B4 tied to PFB4 by inference

Legend:
EGFR [1] = target: T1, EGFR (UniProt P00533 25-645, limits assumed); experiment: SPR, EGFR immobilised on the chip, antibody flowed; concentration not given [panel P1F1]
T1 construct: also called HER1
Text: (§1) In order to assess the specificity of the binding, molecules closely related to HER-2 were also used as bound antigens, namely EGFR and HER-3.

HER-3 [2] = target: T2, HER-3 (UniProt P21860 20-643, limits assumed); experiment: SPR, HER-3 immobilised on the chip, antibody flowed; concentration not given [panel P1F1]
Text: as §1

[3] = target: T3, human HER-2 protein (soluble / recombinant, used in SPR) (human, UniProt P04626 23-652); experiment: SPR
T3 construct: also called immobilized HER2 protein; recombinant HER-2

HER-3 [4] = target: T2, HER-3; experiment: SPR, HER-3 immobilised on the chip, antibody flowed; concentration not given [panel P1E4]
Text: as §1

EGFR [5] = target: T1, EGFR; experiment: SPR, EGFR immobilised on the chip, antibody flowed; concentration not given [panel P1E4]
Text: as §1

HER-3 [6] = target: T2, HER-3; experiment: SPR, HER-3 immobilised on the chip, antibody flowed; concentration not given [panel P1A3]
Text: as §1

EGFR [7] = target: T1, EGFR; experiment: SPR, EGFR immobilised on the chip, antibody flowed; concentration not given [panel P1A3]
Text: as §1

[8] = target: T3, human HER-2 protein (soluble / …); experiment: SPR, immobilized HER2 protein
[9] = target: T3, human HER-2 protein (soluble / …); experiment: SPR, human HER2 immobilised, Fab flown, 1:1 Langmuir model
Method: Rate constants of association, dissociation (kₐ, kd) and the equilibrium dissociation constants (KD) were determined for anti-HER2 Fab molecules. Human HER2 protein (50 μg/mL) was immobilised on the SPR sensor chip and was exposed to five different concentrations of each Fab in 2- or 3-fold dilutions over the flow cells. 1:1 Langmuir model was used to derive the constants.

EGFR [10] = target: T1, EGFR; experiment: SPR, EGFR immobilised on the chip, antibody flowed; concentration not given [panel P1C5]
Text: as §1

HER-3 [11] = target: T2, HER-3; experiment: SPR, HER-3 immobilised on the chip, antibody flowed; concentration not given [panel P1C5]
Text: as §1

T2 sequence (P21860 20-643 limits assumed): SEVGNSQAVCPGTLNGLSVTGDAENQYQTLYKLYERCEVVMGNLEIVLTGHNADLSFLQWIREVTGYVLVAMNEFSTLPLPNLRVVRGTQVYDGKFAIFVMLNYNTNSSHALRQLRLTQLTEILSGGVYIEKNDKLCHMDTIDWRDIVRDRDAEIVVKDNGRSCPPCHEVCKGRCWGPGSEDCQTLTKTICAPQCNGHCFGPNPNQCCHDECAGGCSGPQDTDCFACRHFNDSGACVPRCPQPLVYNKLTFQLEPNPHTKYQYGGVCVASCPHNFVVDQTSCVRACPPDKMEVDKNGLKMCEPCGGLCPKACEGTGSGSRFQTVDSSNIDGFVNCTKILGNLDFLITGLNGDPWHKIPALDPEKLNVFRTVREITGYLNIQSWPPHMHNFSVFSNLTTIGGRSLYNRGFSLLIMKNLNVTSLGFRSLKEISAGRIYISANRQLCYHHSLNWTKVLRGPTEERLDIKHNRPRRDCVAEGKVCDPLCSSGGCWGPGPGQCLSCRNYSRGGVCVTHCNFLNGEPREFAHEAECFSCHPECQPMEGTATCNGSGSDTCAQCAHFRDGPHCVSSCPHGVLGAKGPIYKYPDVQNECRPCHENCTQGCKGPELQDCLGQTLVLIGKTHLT

Binder | Kd [3] [nM] | koff [8] [s⁻¹] | Kd [9] [nM] | koff [9] [s⁻¹] | kon [9] [M⁻¹ s⁻¹] | also measured
B1 | 11.6 |  |  |  |  | binding result (EGFR [1]): no binding; binding result (HER-3 [2]): no binding
B2 | 5.3 |  |  |  |  | binding result (HER-3 [4]): no binding; binding result (EGFR [5]): no binding
B3 | 21.4 |  |  |  |  | binding result (HER-3 [6]): no binding; binding result (EGFR [7]): no binding
B4 |  | 0.0141 | 305 | 0.014 | 44500 | 
B5 | 12.7 |  |  |  |  | binding result (EGFR [10]): no binding; binding result (HER-3 [11]): no binding
B6 |  | 0.0158 | 183 | 0.019 | 108000 | 
B7 |  | 0.013 | 16.5 | 0.026 | 1.59e+06 | 
B8 |  | 0.0322 | 17.6 | 0.078 | 4.41e+06 | 
